Results published in patent US20220153793A1 (SINAI HEALTH SYSTEM, published 2022).

Key:
[1] = target: CIP2A (endogenous) (human, UniProt Q8TCG1 1-905); assay: LacR/LacO assay in U2OS lacO256 cells, endogenous CIP2A at the lacO array
[2] = target: T1, GST-CIP2A (1-560) (human, UniProt Q8TCG1 1-560); assay: GST pull-down with bacterially produced proteins on glutathione resin, immunoblot anti-MBP
T1 construct: Expressed in Escherichia coli and coupled to glutathione sepharose 4B; not shown: Glutathione S-transferase tag of vector pGEX4T1
Experimental: MBP and GST proteins expressed in Escherichia coli were purified on amylose (New England Biolabs) or glutathione sepharose 4B (GE Healthcare) resins according to the batch method described by the manufacturer and stored in 20 mM Tris-HCl pH 8.0, 150 mM NaCl, 1 mM DTT, 5% glycerol. […] Beads were extensively washed prior to analysis by immunoblotting.

Row | binding result [1] | binding result [2] | Binder
1 | no binding |  | mCherry-LacR-TOPBP1 3A (other, also called Flag-LacR-TOPBP1^3A; not shown: The mCherry-LacR carrier (Flag-LacR in the legend and methods) and its linker) MSRNDKEPFFVKFLKSSDNSKCFFKALESIKEFQSEEYLQIITEEEALKIKENDRSLYICDPFSGVVFDHLKKLGCRIVGPQVVIFCMHHQRCVPRAEHPVYNMVMSDVTISCTSLEKEKREEVHKYVQMMGGRVYRDLNVSVTHLIAGEVGSKKYLVAANLKKPILLPSWIKTLWEKSQEKKITRYTDINMEDFKCPIFLGCIICVTGLCGLDRKEVQQLTVKHGGQYMGQLKMNECTHLIVQEPKGQKYECAKRWNVHCVTTQWFFDSIEKGFCQDESIYKTEPRPEAKTMPNSSTPTSQINTIDSRTLSDVSNISNINASCVSESICNSLNSKLEPTLENLENLDVSAFQAPEDLLDGCRIYLCGFSGRKLDKLRRLINSGGGVRFNQLNEDVTHVIVGDYDDELKQFWNKSAHRPHVVGAKWLLECFSKGYMLSEEPYIHANYQPVEIPVSHKPESKAALLKKKNSSFSKKDFAPSEKHEQADEDLLSQYENGSSTVVEAKTSEARPFNDSTHAEPLNDSTHISLQEENQSSVSHCVPDVSTITEEGLFSQKSFLVLGFSNENESNIANIIKENAGKIMSLLSRTVADYAVVPLLGCEVEATVGEVVTNTWLVTCIDYQTLFDPKSNPLFTPVPVMTGMTPLEDCVISFSQCAGAEKESLTFLANLLGASVQEYFVRKSNAKKGMFASTHLILKERGGSKYEAAKKWNLPAVTIAWLLETARTGKRADESHFLIENSTKEERSLETEITNGINLNSDTAEHPGTRLQTHRKTVVTPLDMNRFQSKAFRAVVSQHARQVAASPAVGQPLQKEPSLHLDTPSKFLSKDKLFKPSAAAKDALAALETPGRPSQQKRKPSTPLSEVIVKNLQLALANSSRNAVALSASPQLKEAQSEKEEAPKPLHKVVVCVSKKLSKKQSELNGIAASLGADYRWSFDETVTHFIYQGRPNDTNREYKSVKERGVHIVSEHWLLDCAQECKHLPESLYPHTYNPKMSLDISAVQDGRLCNSRLLSAVSSTKDDEPDPLILEENDVDNMATNNKESAPSNGSGKNDSKGVLTQTLEMRENFQKQLQEIMSATSIVKPQGQRTSLSRSGCNSASSTPDSTRSARSGRSRVLEALRQSRQTVPDVNTEPSQNEQIIWDDPTAREERARLASNLQWPSCPTQYSELQVDIQNLEDSPFQKPLHDSEIAKQAVCDPGNIRVTEAPKHPISEELETPIKDSHLIPTPQAPSIAFPLANPPVAPHPREKIITIEETHEELKKQYIFQLSSLNPQERIDYCHLIEKLGGLVIEKQCFDPTCTHIVVGHPLRNEKYLASVAAGKWVLHRSYLEACRTAGHFVQEEDYEWGSSSILDVLTGINVQQRRLALAAMRWRKKIQQRQESGIVEGAFSGWKVILHVDQSREAGFKRLLQSGGAKVLPGHSVPLFKEATHLFSDLNKLKPDDSGVNIAEAAAQNVYCLRTEYIADYLMQESPPHVENYCLPEAISFIQNNKELGTGLSQKRKAPTEKNKIKRPRVH
2 |  | no binding | MBP-TOPBP1756-999-3A (other, not shown: large carriers) LNSDTAEHPGTRLQTHRKTVVTPLDMNRFQSKAFRAVVSQHARQVAASPAVGQPLQKEPSLHLDTPSKFLSKDKLFKPSAAAKDALAALETPGRPSQQKRKPSTPLSEVIVKNLQLALANSSRNAVALSASPQLKEAQSEKEEAPKPLHKVVVCVSKKLSKKQSELNGIAASLGADYRWSFDETVTHFIYQGRPNDTNREYKSVKERGVHIVSEHWLLDCAQECKHLPESLYPHTYNPKMSLDI
